Measurements taken from publication PMC10581125.

Target: Klebsiella phage GH-K3-derived depolymerase Depo32 (Klebsiella phage GH-K3)
Test: cryo-EM structure; Depo32 purified by size exclusion chromatography, 0.5-1.0 mg/mL, on glow-discharged C-flat carbon grids; 2.46 Å nonsymmetrized and 2.32 Å C3-symmetrized maps; homotrimer

For “Klebsiella phage GH-K3-derived depolymerase Depo32 (enzyme)”, the stoichiometry N was 3.
